Reference: publication PMC2324120, “Disease mechanism for retinitis pigmentosa (RP11) caused by missense mutations in the splicing factor gene PRPF31” (Molecular Vision, 2008)

T1: His-tagged PRPF31, wild type (human, UniProt Q8WWY3 1-499)
T1 construct: also called WT PRPF31; PRPF31-His; not shown: His tag, C-terminal, kept
T1 sequence (looked up): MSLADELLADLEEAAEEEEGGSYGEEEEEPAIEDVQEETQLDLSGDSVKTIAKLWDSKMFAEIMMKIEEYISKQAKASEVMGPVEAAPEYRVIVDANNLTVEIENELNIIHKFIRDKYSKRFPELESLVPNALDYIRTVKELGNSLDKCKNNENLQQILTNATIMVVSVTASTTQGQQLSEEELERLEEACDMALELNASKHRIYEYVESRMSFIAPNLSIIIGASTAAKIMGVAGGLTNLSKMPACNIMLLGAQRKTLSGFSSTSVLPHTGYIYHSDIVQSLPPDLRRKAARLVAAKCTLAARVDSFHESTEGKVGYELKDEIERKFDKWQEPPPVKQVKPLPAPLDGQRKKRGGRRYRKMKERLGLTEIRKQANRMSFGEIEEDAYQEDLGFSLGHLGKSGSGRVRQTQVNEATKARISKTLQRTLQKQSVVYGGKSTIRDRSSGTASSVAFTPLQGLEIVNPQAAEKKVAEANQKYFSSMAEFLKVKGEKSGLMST

T2: GST-tagged PRPF6 C-terminal HAT-containing domain (PRPF6C, residues 607-941) (human, UniProt O94906 607-941)
T2 construct: PRPF6 (U5-102 kD protein), human, residues 607-941, HAT domains 6-9 according to Pfam analysis; the forward primer printed for PRPF6C is nearly the same as that of PRPF6M; Cloned in pGEX6P-1 via EcoRI and SalI; also called GST-PRPF6C; PRP6F-C; not shown: GST, N-terminal, kept
T2 sequence (looked up): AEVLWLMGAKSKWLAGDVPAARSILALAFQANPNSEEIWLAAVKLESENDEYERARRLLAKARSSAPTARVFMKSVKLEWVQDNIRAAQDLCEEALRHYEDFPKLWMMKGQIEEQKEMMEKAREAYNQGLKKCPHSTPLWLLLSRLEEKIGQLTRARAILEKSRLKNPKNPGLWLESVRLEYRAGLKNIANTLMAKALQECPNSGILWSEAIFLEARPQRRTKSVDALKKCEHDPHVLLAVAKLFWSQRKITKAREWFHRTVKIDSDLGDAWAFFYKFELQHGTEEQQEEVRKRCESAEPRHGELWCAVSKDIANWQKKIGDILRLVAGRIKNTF

B1: GST-tagged PRPF6 middle HAT-containing domain (PRPF6M, residues 307-607) (domain or fragment, human, UniProt O94906 307-607, looked up)
chain: HHPPAWIASARLEEVTGKLQVARNLIMKGTEMCPKSEDVWLEAARLQPGDTAKAVVAQAVRHLPQSVRIYIRAAELETDIRAKKRVLRKALEHVPNSVRLWKAAVELEEPEDARIMLSRAVECCPTSVELWLALARLETYENARKVLNKARENIPTDRHIWITAAKLEEANGNTQMVEKIIDRAITSLRANGVEINREQWIQDAEECDRAGSVATCQAVMRAVIGIGIEEEDRKHTWMEDADSCVAHNALECARAIYAYALQVFPSKKSVWLRAAYFEKNHGTRESLEALLQRAVAHCPKA
notes: PRPF6 (U5-102 kD protein), human, residues 307-607, HAT domains 1-5 according to Pfam analysis; Cloned in pGEX6P-1 via EcoRI and SalI; also called GST-PRPF6M; PRP6F-M; not shown: GST, N-terminal, kept

Tests used:
Assay in all cases: pull-down; GST-tagged PRPF6 domain from 100 µl E. coli extract bound to glutathione sepharose beads in PBS, excess removed and beads washed; 0.1 nmol purified His-tagged PRPF31 added in 200 µl, 30 min at 4 °C; three washes with chilled PBS, eluted with reduced glutathione; Western blots with Penta-His and anti-GST antibodies; bands quantified and normalised to WT, four determinations
Conditions in all cases: both partners purified
[1] = target: T1, His-tagged PRPF31, wild type
[2] = target: T2, GST-tagged PRPF6 C-terminal …
[3] = target: B1

| binding result [1] | ratio of mutant:WT PRPF31 band in the pull-down [2] | ratio of mutant:WT PRPF31 band in the pull-down [3] | Binder |
| --- | --- | --- | --- |
| binds | – | – | B1 |
| – | 2.1 fold (mutant:WT) | 4.2 fold (mutant:WT) | His-tagged PRPF31 A216P mutant (natural protein, human, UniProt Q8WWY3 1-499, looked up, PRPF31 splicing factor, human, with the RP11 patient missense mutation A216P, cDNA in pTriEx-1; A216P is a disease mutation found in RP11 patients; also called mutant PRPF31; not shown: His tag, C-terminal, kept) MSLADELLADLEEAAEEEEGGSYGEEEEEPAIEDVQEETQLDLSGDSVKTIAKLWDSKMFAEIMMKIEEYISKQAKASEVMGPVEAAPEYRVIVDANNLTVEIENELNIIHKFIRDKYSKRFPELESLVPNALDYIRTVKELGNSLDKCKNNENLQQILTNATIMVVSVTASTTQGQQLSEEELERLEEACDMALELNASKHRIYEYVESRMSFIPPNLSIIIGASTAAKIMGVAGGLTNLSKMPACNIMLLGAQRKTLSGFSSTSVLPHTGYIYHSDIVQSLPPDLRRKAARLVAAKCTLAARVDSFHESTEGKVGYELKDEIERKFDKWQEPPPVKQVKPLPAPLDGQRKKRGGRRYRKMKERLGLTEIRKQANRMSFGEIEEDAYQEDLGFSLGHLGKSGSGRVRQTQVNEATKARISKTLQRTLQKQSVVYGGKSTIRDRSSGTASSVAFTPLQGLEIVNPQAAEKKVAEANQKYFSSMAEFLKVKGEKSGLMST |
